# Assay results taken from PMC13544220, “Glycemic and bodyweight effects of GIPR coding variation reflect differences in surface expression and intrinsic functional impairment” (Science Advances, 2026).
# Legend:
# [1] = tested on: wild-type and variant SNAP-GIPR in wild-type mouse islets; test: Insulin secretion from wild-type mouse islets transduced with GIPR adenoviruses; format: cell-based; settings: for Insulin secretion, ratio G11 + GIP / G11: Fig 6F
# Description: Isolated islets used for insulin secretion assays were treated in 1.5-ml microcentrifuge tubes. Eight-ten islets were used per well with two-three technical replicates per condition. […] At the end of the treatment, supernatants containing the secreted insulin or glucagon were collected, centrifuged at 1000g for 5 min, and transferred to fresh tubes. […] The lysates were sonicated 3× for 10 s in a water bath and centrifuged at 10,000g for 10 min, and the supernatants were collected. […] GraphPad Prism 9.0 was used for the generation of the standard curve and sample concentration extrapolation. The total insulin or glucagon content was calculated by adding the secreted insulin to the insulin content of the lysates, and secretion was reported as the percentage release of total. The percent secretion of islets treated with agonist was normalized to that of islets treated with vehicle and reported as a fold change.
# [2] = tested on: wild-type and variant SNAP-GIPR in Gipr-/- mouse islets; test: Glucagon secretion from Gipr-/- mouse islets transduced with GIPR adenoviruses; format: cell-based; settings: for Glucagon secretion, ratio G0.5 + GIP / G0.5: Fig S6C, Gipr-/- mouse islets
# Description: (§1) Isolated islets used for insulin secretion assays were treated in 1.5-ml microcentrifuge tubes. Eight-ten islets were used per well with two-three technical replicates per condition. […] At the end of the treatment, supernatants containing the secreted insulin or glucagon were collected, centrifuged at 1000g for 5 min, and transferred to fresh tubes. […] The lysates were sonicated 3× for 10 s in a water bath and centrifuged at 10,000g for 10 min, and the supernatants were collected. The samples were stored at −20°C until the insulin or glucagon concentrations were determined using an Insulin Ultra-Sensitive HTRF Assay kit (62IN2PEG, Revvity) or an HTRF Glucagon Detection Kit (62CGLPEG, Revvity) respectively, according to the manufacturer’s instructions. GraphPad Prism 9.0 was used for the generation of the standard curve and sample concentration extrapolation. The total insulin or glucagon content was calculated by adding the secreted insulin to the insulin content of the lysates, and secretion was reported as the percentage release of total. The percent secretion of islets treated with agonist was normalized to that of islets treated with vehicle and reported as a fold change.
# [3] = tested on: wild-type and variant SNAP-GIPR in Gipr-/- mouse islets; test: Insulin secretion from Gipr-/- mouse islets transduced with GIPR adenoviruses; format: cell-based; settings: for GIP-induced insulin secretion: Gipr-/- islets, 11 mM glucose, 100 nM GIP; for Insulin secretion, ratio G11 + GIP / G11: Fig 6D, Gipr-/- mouse islets
# Description: as §1
# [4] = tested on: wild-type and variant SNAP-GIPR; test: Single-concentration GIP cAMP response by HTRF in INS-1 cells; format: cell-based, human; settings: Fig S3E, mean
# Description: All variants were tested in parallel on each occasion to control for transfection efficiency differences between experiments.
# [5] = tested on: wild-type and variant SNAP-GIPR; test: Surface SNAP-GIPR expression (SNAP-tag labelling) in INS-1 cells; format: cell-based, human; settings: Fig 4G; Mean
# Summary of the method: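 Read-out: whole-cell fluorescence of surface-only SNAP label (Alexa Fluor 647, 500 nM, 10 min, RT), wide-field 20X, several FOVs per well. Flat-field corrected, phase-contrast masked, nontransfected-well signal subtracted; normalized to experiment mean or wild-type.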
# [6] = tested on: wild-type and variant SNAP-GIPR; test: Constitutive and agonist-mediated internalization, reversible SNAP-tag labelling, INS-1 cells; format: cell-based, human; parameters: key to Internalisation, GIP-only / Internalisation, Vehicle / Internalisation, +GIP: % internalization: residual fluorescence after Mesna vs pre-Mesna; settings: Mean; for +GIP internalisation (100 nM) / GIP-specific internalisation (100 nM) / Constitutive internalisation (100 nM): Fig 4G; for +GIP internalisation (100 nM) / GIP-specific internalisation (100 nM): GIP 100 nM; for Internalisation, +GIP / Internalisation, GIP-only / Internalisation, Vehicle: Fig S4C, INS-1
# Summary of the method: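 Percentage internalization is read as the fraction of specific SNAP fluorescence that survives Mesna stripping, compared with the image taken before Mesna. Wells are imaged in TNE buffer at pH 8.6 and again after 10 min.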
# [7] = tested on: wild-type and variant SNAP-GIPR in Gipr-/- mouse islets; test: Surface SNAP-GIPR expression in pancreatic islets; format: cell-based, human; settings: Fig 6B
# Description: Islets were purified from Gipr^−/− mice as described in the “Islet isolation and culture” section. Islets were transduced with adenoviral wild-type or variant SNAP-tagged GIPR constructs (VectorBuilder) per the manufacturer’s instructions. All variants were tested in parallel on each occasion to control for transduction efficiency. Twenty-four hours posttransduction, whole, intact islets were labeled with SNAP-Surface Alexa Fluor 647 for 15 min at 37°C. Following labeling, the islets were placed in a drop of PBS in the center of a glass-bottom MatTek dish and imaged on a Zeiss LSM 780 inverted confocal microscope fitted with a 63X/1.4 NA oil immersion objective. Receptor surface levels were quantified in Fiji using a macro using full width at half maximum (FWHM) designed by the Facility for Imaging and Light Microscopy (FILM) at Imperial College London and expressed relative to wild-type GIPR. In additional experiments, islets transduced as above and labeled with SNAP-Surface-647 were fixed in 4% paraformaldehyde, permeabilized in 0.5% (v/v) Triton X-100 in PBS (15 min), washed once with PBS and incubated in blocking buffer (PBS and 1% BSA) for 1 hour, and incubated overnight at 4°C in primary antibodies against insulin (1:50; Dako IR002, Agilent Technologies) and glucagon (1:500; G2654, Sigma-Aldrich) in blocking buffer.
Molecule,INS-1 cAMP (100 nM) [4],Surface expression [5],+GIP internalisation (100 nM) [6],GIP-specific internalisation (100 nM) [6],Constitutive internalisation (100 nM) [6],"Internalisation, +GIP [6]","Internalisation, GIP-only [6]","Internalisation, Vehicle [6]",Surface SNAP-GIPR expression in pancreatic islets ([7]; replicate 1),Surface SNAP-GIPR expression in pancreatic islets ([7]; replicate 2),Surface SNAP-GIPR expression in pancreatic islets ([7]; replicate 3),Surface SNAP-GIPR expression in pancreatic islets ([7]; replicate 4),Surface SNAP-GIPR expression in pancreatic islets ([7]; replicate 5),other results
"CC[C@H](C)[C@H](NC(=O)[C@H](CO)NC(=O)[C@H](Cc1ccc(O)cc1)NC(=O)[C@H](CC(=O)O)NC(=O)[C@H](CO)NC(=O)[C@@H](NC(=O)[C@H](Cc1ccccc1)NC(=O)[C@@H](NC(=O)CNC(=O)[C@H](CCC(=O)O)NC(=O)[C@H](C)NC(=O)[C@@H](N)Cc1ccc(O)cc1)[C@@H](C)O)[C@@H](C)CC)C(=O)N[C@@H](C)C(=O)N[C@@H](CCSC)C(=O)N[C@@H](CC(=O)O)C(=O)N[C@@H](CCCCN)C(=O)N[C@H](C(=O)N[C@@H](Cc1c[nH]cn1)C(=O)N[C@@H](CCC(N)=O)C(=O)N[C@@H](CCC(N)=O)C(=O)N[C@@H](CC(=O)O)C(=O)N[C@@H](Cc1ccccc1)C(=O)N[C@H](C(=O)N[C@@H](CC(N)=O)C(=O)N[C@@H](Cc1c[nH]c2ccccc12)C(=O)N[C@@H](CC(C)C)C(=O)N[C@@H](CC(C)C)C(=O)N[C@@H](C)C(=O)N[C@@H](CCC(N)=O)C(=O)N[C@@H](CCCCN)C(=O)NCC(=O)N[C@@H](CCCCN)C(=O)N[C@@H](CCCCN)C(=O)N[C@@H](CC(N)=O)C(=O)N[C@@H](CC(=O)O)C(=O)N[C@@H](Cc1c[nH]c2ccccc12)C(=O)N[C@@H](CCCCN)C(=O)N[C@@H](Cc1c[nH]cn1)C(=O)N[C@@H](CC(N)=O)C(=O)N[C@H](C(=O)N[C@H](C(=O)N[C@@H](CCC(N)=O)C(=O)O)[C@@H](C)O)[C@@H](C)CC)C(C)C)[C@@H](C)CC [GIP, glucose-dependent insulinotropic polypeptide, reference compound]",,,,,,,,,,,,,,"GIP-induced insulin secretion ([1]; 11 mM glucose, particularly E354Q and R190Q, not significant): tendency toward reduced responses to GIP stimulation; glucagon release ([2]; Gipr-/- islets, 0.5 mM glucose, each variant vs wild type): apparent but nonstatistically significant reduction in glucagon release; GIP-induced insulin secretion ([3]; 30 min, E354Q vs wild-type): blunted insulinotropic response; GIP-induced insulin secretion ([3]; R101H and E288G, not significant): apparent reduced GIP-induced insulin secretion; GIP-induced insulin secretion ([3]; R190Q, statistically significant): reduced GIP-induced insulin secretion"
"WT (protein, UniProt P48546 22-466, looked up) Gastric inhibitory …: RAETGSKGQTAGELYQRWERYRRECQETLAAAEPPSGLACNGSFDMYVCWDYAAPNATARASCPWYLPWHHHVAAGFVLRQCGSDGQWGLWRDHTQCENPEKNEAFLDQRLILERLQVMYTVGYSLSLATLLLALLILSLFRRLHCTRNYIHINLFTSFMLRAAAILSRDRLLPRPGPYLGDQALALWNQALAACRTAQIVTQYCVGANYTWLLVEGVYLHSLLVLVGGSEEGHFRYYLLLGWGAPALFVIPWVIVRYLYENTQCWERNEVKAIWWIIRTPILMTILINFLIFIRILGILLSKLRTRQMRCRDYRLRLARSTLTLVPLLGVHEVVFAPVTEEQARGALRFAKLGFEIFLSSFQGFLVSVLYCFINKEVQSEIRRGWHHCRLRRSLGEEQRQLPERAFRALPSGSGPGEVPTSRGLSSGTLPGPGNEASRELESYC",1.606,1.4278,0.7446,0.2047,0.5399,51.1244,14.2697,36.8547,1.958,2.33,2.173,3.278,3.132,
E354Q (protein) RAETGSKGQTAGELYQRWERYRRECQETLAAAEPPSGLACNGSFDMYVCWDYAAPNATARASCPWYLPWHHHVAAGFVLRQCGSDGQWGLWRDHTQCENPEKNEAFLDQRLILERLQVMYTVGYSLSLATLLLALLILSLFRRLHCTRNYIHINLFTSFMLRAAAILSRDRLLPRPGPYLGDQALALWNQALAACRTAQIVTQYCVGANYTWLLVEGVYLHSLLVLVGGSEEGHFRYYLLLGWGAPALFVIPWVIVRYLYENTQCWERNEVKAIWWIIRTPILMTILINFLIFIRILGILLSKLRTRQMRCRDYRLRLARSTLTLVPLLGVHQVVFAPVTEEQARGALRFAKLGFEIFLSSFQGFLVSVLYCFINKEVQSEIRRGWHHCRLRRSLGEEQRQLPERAFRALPSGSGPGEVPTSRGLSSGTLPGPGNEASRELESYC,1.46,0.7154,0.4403,0.1518,0.2885,61.4683,21.0467,40.4217,1.913,1.476,1.8301,2.1125,2.267,"Insulin secretion, ratio G11 + GIP / G11 ([1]; replicate 1): 0.7071; Insulin secretion, ratio G11 + GIP / G11 ([1]; replicate 2): 0.9219; Insulin secretion, ratio G11 + GIP / G11 ([1]; replicate 3): 0.7382; Insulin secretion, ratio G11 + GIP / G11 ([1]; replicate 4): 0.5337; Insulin secretion, ratio G11 + GIP / G11 ([1]; replicate 5): 0.4605; Glucagon secretion, ratio G0.5 + GIP / G0.5 ([2]; replicate 1): 0.6783; Glucagon secretion, ratio G0.5 + GIP / G0.5 ([2]; replicate 2): 1.215; Glucagon secretion, ratio G0.5 + GIP / G0.5 ([2]; replicate 4): 1.495; Insulin secretion, ratio G11 + GIP / G11 ([3]; replicate 1): 1.276; Insulin secretion, ratio G11 + GIP / G11 ([3]; replicate 2): 0.2979; Insulin secretion, ratio G11 + GIP / G11 ([3]; replicate 3): 1.231; Insulin secretion, ratio G11 + GIP / G11 ([3]; replicate 4): 1.587"
